Measured values from patent US20190030126A1, “Inhibitors of the Interaction BCL-2 L10 / IP3 Receptors” (Universite Claude Bernard - Lyon 1, priority 2016, published 2019).
Several values for one entry are separate records, joined by “and”; a condition that tells them apart may be missing. Equal values may be shown once. No end group written: not given here.

Key:
[1] = target: endogenous protein Bcl-2 L10/Nrh (in cells) (human) (UniProt Q9HD36); experiment: proximity ligation assay of endogenous Nrh and IP3R1, MDA-MB-231 cells; as a function of the negative control
Flag-Nrh (Bcl-2 L10) = target: T1, Flag-Nrh (Bcl-2 L10) (Homo sapiens, UniProt Q9HD36); experiment: Streptavidin pull-down with biotin-labelled peptide, HeLa extracts expressing Flag-Nrh; assay type: binding; conditions: 5 μg of biotin-labelled peptide
T1 construct: expressed in transfected cells; host or cells: HeLa (cellular extracts)
T1 sequence (Q9HD36 1-204): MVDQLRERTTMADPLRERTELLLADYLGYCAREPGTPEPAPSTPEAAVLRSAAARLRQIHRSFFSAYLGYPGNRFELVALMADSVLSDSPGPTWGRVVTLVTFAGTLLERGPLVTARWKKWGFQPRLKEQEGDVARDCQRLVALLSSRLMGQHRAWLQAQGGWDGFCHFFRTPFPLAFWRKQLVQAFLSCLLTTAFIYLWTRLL
Procedure: (§1) (A) Streptavidin pull-down in HeLa cells transfected with either empty vector pCS2+, Flag-Nrh, HA-hBD or HA-BECN1, which cellular extracts were incubated or not with 5 μg of biotin-labelled Nrh 1-23 peptide.
(§2) (B) Streptavidin pull-down in HeLa cells transfected with either empty vector pCS2+, Flag-Nrh, or Flag-Nrz, which cellular extracts were incubated with 5 μg of biotin-labelled Nrh 1-23 peptide or Nrh 1-23 R6A Y16F double mutant peptide.
(§3) (A) HeLa cells were transfected with either empty vector pCS2+, Flag-Nrh, HA-hBD or HA-Beclin1 (referred to as HA-BECN1), a protein well known for its binding capacities to Nrh, then cellular extracts were incubated or not with 5 μg of biotin-labelled Nrh 1-23 wild-type peptide. Streptavidin is used for pulling-down the complexes comprising biotin-labelled Nrh peptide.
(§4) Streptavidin is used for pulling-down the complexes comprising biotin-labelled Nrh peptide.

[2] = target: T2, interaction of Bcl-2 L10/Nrh with the BD domain of the receptor IP3R1 (Homo sapiens, UniProt Q9HD36); experiment: Immunoprecipitation (anti-HA) of the Flag-Nrh / HA-hBD interaction in HeLa cells co-transfected with peptide plasmids; assay type: cell-based; conditions: peptides Flag-tagged, fused to cytochrome b5 domain, plasmid ratio 1:2
T2 construct: expressed in transfected cells; host or cells: HeLa
T2 sequence (Q9HD36 11-204): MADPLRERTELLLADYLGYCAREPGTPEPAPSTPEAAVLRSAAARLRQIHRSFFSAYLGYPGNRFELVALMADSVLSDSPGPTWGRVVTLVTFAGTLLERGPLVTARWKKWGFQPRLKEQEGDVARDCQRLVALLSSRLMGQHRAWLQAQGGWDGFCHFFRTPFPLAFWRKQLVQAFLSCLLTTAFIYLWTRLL
From the text: (B) Quantification of the Nrh-IP3R1 interaction by immunoprecipitation experiments with anti-HA antibodies in HeLa cells transfected with plasmids coding for Flag-Nrh, HA-hBD and the different point mutants of the peptides Nrh 1-23 Flag-tagged with a ratio of 1:2 (N=3).
FIG. 5B presents the ability of these different peptides to inhibit the interaction of Bcl-2 L10/Nrh with the BD domain of the receptor IP3R1. This interaction is quantified by the immunoprecipitation technique, the BD domain being tagged with an HA epitope and the protein Bcl-2 L10/Nrh being tagged with a Flag epitope.
HeLa cells are transfected with plasmids coding for Flag-Nrh, HA-hBD and the different point mutants of the peptide Nrh 1-23 Flag-tagged with a ratio of 1:2, and immunoprecipitation is carried out with an anti-HA antibody.

[3] = target: endogenous protein Bcl-2 L10/Nrh (in cells) (human) (UniProt Q9HD36); experiment: cell-based or functional assay
[4] = target: endogenous protein Bcl-2 L10/Nrh (in cells) (human) (UniProt Q9HD36); experiment: proximity ligation assay of endogenous Nrh and IP3R1, MDA-MB-231 cells; against the no-flash control
[5] = target: endogenous protein Bcl-2 L10/Nrh (in cells) (human) (UniProt Q9HD36); experiment: proximity ligation assay of endogenous Nrh and IP3R1, MDA-MB-231 cells; against the vehicle control
[6] = target: T3, Nrh homodimer (Flag-Nrh / HA-Nrh) (Homo sapiens, UniProt Q9HD36); experiment: Co-immunoprecipitation (anti-HA) of Flag-Nrh and HA-Nrh: Nrh homodimerisation; assay type: binding; conditions: incubation with the peptide
T3 construct: the ability of the whole protein Nrh (Bcl-2 L10) to dimerise
T3 sequence (Q9HD36 11-204): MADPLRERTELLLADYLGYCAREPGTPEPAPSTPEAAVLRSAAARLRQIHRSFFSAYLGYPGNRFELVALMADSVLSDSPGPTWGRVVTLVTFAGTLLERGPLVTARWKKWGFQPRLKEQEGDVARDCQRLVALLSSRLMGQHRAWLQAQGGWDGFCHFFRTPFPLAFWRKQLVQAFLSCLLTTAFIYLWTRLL
From the text: Quantification of the interaction between Flag-Nrh and HA-Nrh using co-immunoprecipitation with anti-HA antibody.
FIG. 7 illustrates the quantification of the interaction between Flag-Nrh and HA-Nrh using co-immunoprecipitation with anti-HA antibody. Formation of a Nrh homodimer is observed.

Flag-Nrz = experiment: Streptavidin pull-down with biotin-labelled peptide, HeLa extracts expressing Flag-Nrz; assay type: binding, zebrafish; conditions: 5 μg of biotin-labelled peptide
Procedure: as §2, §4

[7] = target: T4, HA-hBD (IP3 binding domain of IP3R1) (Homo sapiens, UniProt Q14643); experiment: Streptavidin pull-down with biotin-labelled peptide, HeLa extracts expressing HA-hBD; conditions: 5 μg of biotin-labelled peptide
T4 construct: extending from residue 226 to residue 565 in the human protein; expressed in transfected cells; host or cells: HeLa (cellular extracts)
Procedure: as §1, §3

HeLa cells = experiment: Test of apoptosis (SR-FLICA, caspase activity) in transfected HeLa cells treated with thapsigargin; assay type: cell-based, human; conditions: 10 μM thapsigargin for 24 h; for potentiation of thapsigargin effect on caspase activity: HeLa cells transfected with peptide construct (fused to Cb5)
Procedure: (B) Test of apoptosis (SR-FLICA) in response to 10 μM of thapsigargin for 24 h in HeLa cells transfected with the empty vector pCS2+ or the constructs coding for Nrh-WT (wild-type), Nrh-ActA, Nrh-cb5, Nrh-dTM or Nrh-dBH4 (N=3). ***, p<0.001;**, p<0.01; n.s. p>0.1 (Student t-test).
(C) Test of apoptosis (SR-FLICA) in response to 10 μM of thapsigargin for 24 h in HeLa cells transfected with the empty vector pCS2+ or the constructs coding for the peptides Nrh 1-23, Nrh 1-23 Y16F or Nrh 1-23 C20A (N=3). ***, p<0.001;**, p<0.01; n.s. p>0.1 (Student t-test).
The effects of these various proteins were observed after transfection of HeLa cells by the empty vector pCS2+ or with the constructs coding for Nrh, Nrh-ActA, Nrh-cb5, dTM or dBH4.

[8] = target: T5, interaction between the endogenous proteins Nrh and IP3R1 (Homo sapiens, UniProt Q9HD36); experiment: Proximity ligation assay (PLA) of endogenous Nrh and IP3R1 in MDA-MB-231 cells; assay type: cell-based; conditions: for inhibition of the Nrh/IP3R1 interaction relative to the limit value: conclusion of the PLA experiment; for percentage inhibition of the Nrh/IP3R1 interaction: with 488 nm flash
T5 construct: endogenous in cells; host or cells: MDA-MB-231
T5 sequence (Q9HD36 11-204): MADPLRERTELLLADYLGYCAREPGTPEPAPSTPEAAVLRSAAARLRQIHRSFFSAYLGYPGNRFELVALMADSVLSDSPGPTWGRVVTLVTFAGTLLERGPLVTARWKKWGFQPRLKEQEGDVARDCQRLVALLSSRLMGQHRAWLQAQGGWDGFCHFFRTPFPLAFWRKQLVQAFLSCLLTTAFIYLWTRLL
Procedure: (A) Proximity ligation assay (PLA) experiments allowing for the detection of the interaction between the endogenous proteins Nrh and IP3R1 in MDA-MB-231 cells.
The MDA-MB-231 cells are incubated for 4 h with the peptide TAT Nrh-1-23 (SEQ ID NO. 4) or the control peptide TAT-Nrh 1-23 Y16F (SEQ ID NO 12, 14 and 6). After 3 washes of the cells, a 488 nm laser is used to excite the fluorophore (FITC) present in the endosomes, rupture the endosomal membrane and release the TAT-FITC peptides into the cytosol. The cells are incubated for 12 h then fixed, and the interaction between Nrh and IP3R1 is quantified by PLA using a rabbit anti-Nrh primary antibody and a mouse anti-IP3R1 primary antibody. This step is followed by incubation with a mixture of anti-rabbit and anti-mouse secondary antibodies, each coupled to a complementary nucleotide probe. A step of ligation then amplification is then carried out in the presence of fluorescent nucleotides, making it possible to amplify a specific signal in the case of spatial proximity of the probes. The fluorescence signal, in which each dot corresponds to an interaction in the cell, is recorded by means of a Nikon NiE fluorescence microscope. The images are quantified by the Image J software, and the interaction score is represented on the graph as number of dots per cell (N=3).

[9] = target: T6, HA-hBD (IP3 ligand binding domain of human IP3R1 tagged with an HA epitope) (human, UniProt Q14643-2 226-565, limits assumed); experiment: streptavidin pull-down from extracts of transfected HeLa cells
T6 construct: Expressed in HeLa cells; also called HA-hBD IP3R1; BD domain of the receptor IP3R1

[10] = 488 nm flash used to release the peptide

T6 sequence (Q14643 other isoform, or with tags, fused parts or gaps limits assumed): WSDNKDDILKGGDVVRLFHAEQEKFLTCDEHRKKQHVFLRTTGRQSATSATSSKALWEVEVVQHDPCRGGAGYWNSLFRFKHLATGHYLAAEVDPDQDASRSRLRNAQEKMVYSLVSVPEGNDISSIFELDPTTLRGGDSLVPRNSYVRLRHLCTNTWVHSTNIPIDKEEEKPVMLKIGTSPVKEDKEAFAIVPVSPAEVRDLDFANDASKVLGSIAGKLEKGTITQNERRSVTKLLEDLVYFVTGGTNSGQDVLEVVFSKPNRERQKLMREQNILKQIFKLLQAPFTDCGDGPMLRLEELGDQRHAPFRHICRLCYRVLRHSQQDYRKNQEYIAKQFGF
T4 sequence (Q14643 226-565): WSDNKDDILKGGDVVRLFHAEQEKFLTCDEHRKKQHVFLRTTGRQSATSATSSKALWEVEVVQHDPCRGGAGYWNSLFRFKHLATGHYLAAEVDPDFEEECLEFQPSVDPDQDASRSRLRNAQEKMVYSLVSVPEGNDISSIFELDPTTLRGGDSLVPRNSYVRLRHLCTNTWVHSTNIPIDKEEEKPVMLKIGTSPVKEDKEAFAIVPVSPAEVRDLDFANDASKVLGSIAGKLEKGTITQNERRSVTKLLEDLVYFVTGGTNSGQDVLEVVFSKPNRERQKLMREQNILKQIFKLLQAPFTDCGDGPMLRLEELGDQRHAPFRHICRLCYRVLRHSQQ

## peptide TAT-Nrh 1-23 (TAT-spacer-domain of binding to IP3Rs without methionine), FITC-coupled
[1]
  percentage inhibition of the Nrh/IP3R1 interaction: 86% and 87%

## Nrh 1-23 R6A Y16F: biotin-labelled Nrh 1-23 R6A Y16F double mutant peptide (MADPLAERTELLLADFLGYCARE; also: biotin-labelled (position not given here))
Flag-Nrh (Bcl-2 L10)
  interaction with Nrh (pull-down): reduced interaction with Nrh

## MADPLRERTELLLADFLGYCARE (Synthetic peptide Y16F) [Nrh Y16F, point mutant of Nrh 1-23, non-functional]
[2]
  ability to inhibit the Nrh/IP3R1 BD interaction (Flag-Nrh band on Western blot after anti-HA immunoprecipitation): still visible, albeit faintly

## MADPLRERTELLLAAYLGYCARE (Synthetic peptide D15A) [Nrh D15A, point mutant of Nrh 1-23, functional]
[2]
  ability to inhibit the Nrh/IP3R1 BD interaction (Flag-Nrh band on Western blot after anti-HA immunoprecipitation): dissociate the Nrh/IP3R1 interaction

## peptide Nrh 1-23 fused at the C-terminal end with the cytochrome b5 targeting domain, Flag-tagged
[3]
  caspase activity (SR-FLICA apoptosis test), HeLa cells, 10 µM thapsigargin for 24 h: 2 fold

## MADPLAERTELLLADYLGYCARE (Synthetic peptide Peptide R6A) [Nrh R6A, point mutant of Nrh 1-23, non-functional]
[2]
  ability to inhibit the Nrh/IP3R1 BD interaction (Flag-Nrh band on Western blot after anti-HA immunoprecipitation): still visible, albeit faintly

## control peptide TAT-Nrh 1-23 Y16F, FITC-coupled
[4]
  percentage inhibition of the Nrh/IP3R1 interaction: 25%
[5]
  percentage inhibition of the Nrh/IP3R1 interaction: 18.8%

## MADPLRERTELLLADYLGYCARE [Nrh 1-23]
[6]
  prevention of Nrh homodimerisation: can be prevented
Flag-Nrz
  interaction with Nrz (pull-down): not Nrz
[2]
  ability to inhibit the Nrh/IP3R1 BD interaction (Flag-Nrh band on Western blot after anti-HA immunoprecipitation): dissociate the Nrh/IP3R1 interaction
[7]
  interaction with HA-hBD (pull-down): not with HA-hBD
Flag-Nrh (Bcl-2 L10)
  interaction with Nrh (pull-down): only able to interact with Nrh
HeLa cells
  potentiation of thapsigargin effect on caspase activity: virtually doubled

## MADPLRERTELLLADYLGYAARE (Synthetic peptide C20A) [Nrh C20A, point mutant of Nrh 1-23, functional]
[2]
  ability to inhibit the Nrh/IP3R1 BD interaction (Flag-Nrh band on Western blot after anti-HA immunoprecipitation): dissociate the Nrh/IP3R1 interaction
HeLa cells
  potentiation of thapsigargin effect on caspase activity: this effect is maintained

## C/C=C(/C)C(=O)O[C@H]1C(C)=C2[C@H]([C@@H]1OC(=O)CCCCCCC)[C@@](C)(OC(C)=O)C[C@H](OC(=O)CCC)[C@@]1(O)[C@H]2OC(=O)[C@@]1(C)O [thapsigargin, reference compound]
HeLa cells; HeLa control cells (empty vector pCS2+)
  caspase activity: greatly induced

## TAT Nrh Y16F: combination of TAT (SEQ ID NO. 12), a spacer (SEQ ID NO. 14) and SEQ ID NO. 6 without the methionine; control outside the invention (RKKRRQRRRGGSGGADPLRERTELLLADFLGYCARE)
[8]; [10]
  PLA interaction score Nrh/IP3R1: 65±5 dots per cell
[8]
  inhibition of the Nrh/IP3R1 interaction relative to the limit value: < 30%

## RKKRRQRRRGGSGGADPLRERTELLLADYLGYCARE [TAT Nrh 1-23]
[8]; [10]
  PLA interaction score Nrh/IP3R1: 11±1 dots per cell
[8]
  inhibition of the Nrh/IP3R1 interaction relative to the limit value: at least 30%
[8]; in the absence of 488 nm flash (no release of the peptides into the cytosol)
  PLA interaction score Nrh/IP3R1: 87±6 dots per cell
[8]; negative control = TAT Nrh 1-23 without flash (87 dots per cell)
  percentage inhibition of the Nrh/IP3R1 interaction: 87%
[8]; negative control = vehicle (80 dots per cell)
  percentage inhibition of the Nrh/IP3R1 interaction: 86%

B1: biotin-labelled Nrh 1-23 wild-type peptide (peptide)
peptide: MADPLRERTELLLADYLGYCARE
modifications: also: biotin-labelled (position not given here)
notes: 3 (same without the first methionine); also called biotin-labelled Nrh 1-23 peptide
[9]
  binding result: no binding (tested: 5 µg of biotin-labelled peptide)

B2: Bcl-2 L10/Nrh-WT: the human Bcl-2 L10/Nrh protein in its wild-type, whole form, expressed from a transfected construct (protein, UniProt Q9HD36 1-204, looked up)
chain: MVDQLRERTTMADPLRERTELLLADYLGYCAREPGTPEPAPSTPEAAVLRSAAARLRQIHRSFFSAYLGYPGNRFELVALMADSVLSDSPGPTWGRVVTLVTFAGTLLERGPLVTARWKKWGFQPRLKEQEGDVARDCQRLVALLSSRLMGQHRAWLQAQGGWDGFCHFFRTPFPLAFWRKQLVQAFLSCLLTTAFIYLWTRLL
modifications: full-length
notes: the human Bcl-2 L10/Nrh protein in its wild-type, whole form, expressed from a transfected construct
HeLa cells; HeLa cells overexpressing Nrh construct
  effect on thapsigargin-induced caspase activity (apoptosis-blocking effect): reduced by half
